{"source": "patent US20140017242A1", "about": "“ANTI-BRADYKININ B2 RECEPTOR (BKB2R) MONOCLONAL ANTIBODY” (Diamedica, Inc., priority 2010, published 2014)", "key": {"[1]": {"test_system": "HT-29", "assay": "MTT Cell Proliferation Assay, HT-29", "format": "cell-based, human", "settings": "120 hours of exposure", "from_the_text": "This Example describes characterization of the cytotoxic activity of herein described anti-BKB2R monoclonal antibodies against a panel of cancer cell lines. BxPC-3 is a human adenocarcinoma cell line originally isolated from the pancreas (pancreatic cancer) (ATCC # CRL-1687; Tan et al., Cancer Invest. 4: 15-23, 1986. PubMed: 3754176). MV-4-11 is a human biphenotypic B myelomonocytic leukemia (mixed-lineage leukemia, MLL-AF4) cell line originally isolated from the peripheral blood (ATCC # CRL-959; Lange et al., Blood 70: 192-199, 1987. PubMed: 3496132). Hep G2 is a human hepatocellular carcinoma cell line isolated from the liver (liver cancer) (ATCC # HB-8065; Aden et al., Nature 282: 615-616, 1979. PubMed: 233137). RS4;11 is a human acute lymphoblastic leukemia (mixed-lineage leukemia, MLL-AF4) cell line isolated from the bone marrow (ATTC # CRL-1873) Stong et al., Blood 65: 21-31, 1985. PubMed: 3917311). HT-29 is a human colorectal adenocarcinoma (ATTC # HTB-38) cell line isolated from the colon (colon cancer). Fogh et al., J. Natl. Cancer Inst. 58: 209-214, 1977. PubMed: 833871). NUGC-4 is a human stomach carcinoma isolated from the stomach paragastiric lymph node (JCRB # JCRB0834; Akiyama et al., Jpn. J. Surg., 18: 438-446, 1988). […]\nThe anti-proliferative activity of test compounds against the indicated cell lines was evaluated in vitro using the ATCC's MTT Cell Proliferation Assay (Catalog No. 30-1010K). After the 120 hour incubation with drug (e.g., anti-BKB2R mAb or cisplatin), cell proliferation was measured by addition of MTT reagent to each well and incubation for an additional 4 hrs. […] Optical absorbance (570 nm) of the test wells was measured and then quantitated relative to control wells that received no drug. Results were expressed as percent inhibition versus compound concentration and graphed, as shown in FIGS. 19-25, for cell lines BxPC-3, MV-4;11, HepG2, RS-4;11, HT-29, NUGC-4, and PC-3, respectively."}, "[2]": {"test_system": "ZDF fa/fa rats", "assay": "21-day ZDF fa/fa study: tail cuff blood pressure and heart rate", "format": "in vivo, rat", "method": "Animals. Male ZDF fa/fa rats were obtained from CRL (Kingston, N.Y.). Upon arrival, rats were seven weeks of age. The rats were housed individually per cage in a room with a photo cycle of 12 hours of light and 12 hours of dark and an ambient temperature of 70-72° F. and fed on regular rodent diet and water ad libitum. At the age of eleven weeks, rats were divided into six groups (Table 5) of eight rats per group based on fasting blood glucose levels. A sub-group of four rats per group was maintained in parallel to the main groups and was dosed similarly for twenty-one days for a hyperinsulinemic-euglycemic clamp study. […]\nAn oral glucose tolerance test (OGTT) was performed on Day 0, 7, 14 and 21 for each group of the study. […] Body weight, food and water intake were measured twice a week. Blood pressure and heart rates were monitored on Day 0, 7, 14 and 21 using a non-invasive tail cuff method (with five readings per rat taken and then averaged). […] Glycated (Glycosylated) hemoglobin (HbA1c) was measured at the end of the study. […]\nBlood pressure measurements were performed using a blood pressure monitor and data acquisition software. […] The VPR sensor utilized a differential pressure transducer to non-invasively measure the blood volume in the tail, and determined systolic blood pressure, diastolic blood pressure, and heart rate. […]"}}}
{"molecule": "5F12G1: murine monoclonal anti-BKB2R antibody (IgG2b,κ), VH comprising SEQ ID NO:1, VL comprising SEQ ID NO:2 (antibody, listed as Mus musculus, V domains shown) VH: EVKLEESGGGLVQPGGSMKLSCVVSGFTFSDYWMSWVRHSPEMGLEWVAEIRLKSDNYATHYAESVKGRFTISRDDSKSRLYLQINSLRGEDTGIYYCTRDYYAMEYWGQGTSVTVSS VL: DVVMTQTPLSLPVSLGDQASISCRSSQTIVHSNGKTYLEWYLQKPGQSPKLLIYKVSNRFSGVPDRFSGSGSGTEFTLKISRVETEDLGVYYCFQASHVPYTFGGGTKLEIK", "values": [{"measurement": "EC 50 Values (ng/ml) HT-29", "setting": "[1]", "result": 16000, "unit": "ng/mL"}, {"measurement": "increase in systolic blood pressure from baseline", "setting": "[2]; 0.2 mg/kg s.c. every 3 days (highest dose), Day 0 to Day 21", "result": "0.12+/−4.4 mm Hg"}, {"measurement": "systolic, diastolic blood pressure and heart rate measurements relative to the control group MG2b-57", "setting": "[2]; all 5F12G1 doses, day 21", "result": "below the control group"}]}
